According to patent US9592281B2, “Method for inducing immunity with a peptide fragment from human CAPRIN-1” (Toray Industries, Inc., priority 2008, dated 2017):
Residues, ends and D or L forms follow the SMILES beside them.

Legend:
[1] = test system: U-87MG human glioma cells
Experimental: 10^6 cells of U-87MG human glioma cells (purchased from ATCC), which were verified to express the human CAPRIN-1 polypeptide, were collected in a 50-ml centrifuge tube, 100 μCi chromium-51 was added, and incubation was carried out at 37° C. for 2 hours. Thereafter, the cells were washed 3 times with RPMI medium (Gibco) containing 10% fetal bovine serum (hereafter referred to as “FBS,” Gibco) and added to a 96-well V-bottom plate in amounts of 10^3 cells/well. Further, 5×10^4 HLA-A0201+ and peptide epitope-reactive CD8+ T cells stimulated with the peptides suspended in RPMI medium containing 10% FBS were added, and culture was conducted at 37° C. in 5% CO2 for 4 hours. After the culture, the amount of chromium-51 in the culture supernatant released from the disrupted tumor cells was measured to determine the cytotoxic activity of the peptide-stimulated CD8+ T cells.
(§1) The cytotoxic activity used herein means the cytotoxic activity of the CD8+ T cells against the U-87MG cells or the JTK-LCL cells (i.e., target cells) determined according to the following equation*. Cytotoxic activity (%)=amount of chromium-51 released from U-87MG or JTK-LCL cell upon addition of CD8+ T cell/amount of chromium-51 released from target cell upon addition of 1N hydrochloric acid×100 Equation*

[2] = test system: HLA-A24+ JTK-LCL cells
Experimental: Chromium-51 was incorporated into the HLA-A24+ JTK-LCL cells expressing the human CAPRIN-1 polypeptide, HLA-A24+ and peptide epitope-reactive CD8+ T cells were added, culture was conducted, and the amount of chromium-51 in the culture supernatant released from the disrupted cells was measured.
as §1

[3] = test system: canine peripheral blood mononuclear cells; assay: ELISpot assay of IFNγ using peripheral blood mononuclear cells of administered dogs; assay type: cell-based, dog; details: 5×10^5 cells/well, restimulated with the administered polypeptide 24 hours, no spots before administration
Experimental: 70% ethanol was added to a 96-well plate (MultiScreen-IP, MAIPS4510, Millipore) in amounts of 100 μl/well, the plate was allowed to stand for 5 minutes, ethanol was aspirated off, the plate was washed with sterilized water, 200 mM sodium bicarbonate (pH 8.2) was added in amounts of 300 μl/well, the plate was allowed to stand for 5 minutes, sodium bicarbonate was aspirated off, and the plate was washed. Subsequently, the anti-canine interferon γ monoclonal antibody (clone142529, MAB781, R&D) added to 200 mM sodium bicarbonate was added to the plate in amounts of 0.5 μg/well, incubation was carried out at 37° C. overnight, and the primary antibody was solid-phased. After the primary antibody in the solution was aspirated off, a blocking solution (1% BSA-5% sucrose-200 mM sodium bicarbonate, pH 8.2) was added in amounts of 300 μl/well, and incubation was carried out at 4° C. overnight to block the plate. After the blocking solution was aspirated off, RPMI medium containing 10% fetal bovine serum (Invitrogen) was added in amounts of 300 μl/well, the plate was allowed to stand for 5 minutes, and the medium was aspirated off. Thereafter, canine peripheral blood mononuclear cells suspended in RPMI medium containing 10% fetal bovine serum were added to the plate in amounts of 5×10^5 cells/well, the dog-derived polypeptide or human-derived polypeptide used for administration were added thereto in amounts of 10 μl/well, and culture was conducted at 37° C. in 5% CO2 for 24 hours to produce interferon γ from immunocytes among peripheral blood mononuclear cells. After culture was conducted, the medium was removed, and wells were washed 6 times with a wash (0.1% Tween 20-200 mM sodium bicarbonate, pH 8.2). The rabbit anti-dog polyclonal antibodies diluted 1,000-fold with the blocking solution were added to the plate in amounts of 100 μl/well and then incubated at 4° C. overnight. After the wells were washed 3 times with the wash, the HRP-labeled anti-rabbit antibodies diluted 1,000-fold with the blocking solution were added to the plate in amounts of 100 μl/well, and the reaction was allowed to proceed at 37° C. for 2 hours. After the wells were washed 3 times with the wash, a color was developed with the aid of a Konica immunostain (Konica), and the wells was washed with water to terminate the reaction. After the reaction was terminated, the membrane was dried, and the number of the developed spots was counted using the KS Elispot (Carl Zeiss).

[4] = test system: tumor of cancer-bearing dog (breast cancer); assay: Antitumor evaluation of recombinant protein in cancer-bearing dog; assay type: in vivo; details: dog with breast cancer; for tumor size: tumor about 86 mm^3 at administration, 100 μg with Freund's incomplete adjuvant, 3 times to regional lymph node
Experimental: A cancer-bearing dog (breast cancer) having a tumor on the epidermis was subjected to evaluation of the antitumor effects of the recombinant protein purified above.
The recombinant polypeptide having the amino acid sequence shown by SEQ ID NO: 6 purified in the above-described manner (100 μg, 0.5 ml) was mixed with the equivalent amount of the Freund's incomplete adjuvant (Wako Pure Chemical Industries, Ltd.) to prepare a cancer therapeutic agent. The resulting agent was administered 3 times in total to the regional lymph node in the vicinity of the tumor, as an initial-administration, and 3 days and 7 days thereafter.
Also, 100 μg of canine interleukin 12 was administered together with the agent subcutaneously.
Further, a mixture of 0.5 ml of the recombinant polypeptide having the amino acid sequence shown by SEQ ID NO: 8 and 0.5 ml of the Freund's incomplete adjuvant was administered to another dog having breast cancer 3 times in total in the same manner as described above. Also, 100 μg of canine interleukin 12 was administered together with the agent subcutaneously.

[5] = test system: human breast cancer cell line, MDA-MB-231V; assay: Flow cytometry reactivity of monoclonal antibodies with breast cancer cell surface; assay type: cell-based; details: 10^6 MDA-MB-231V cells; control with medium instead of antibody
Experimental: Subsequently, monoclonal antibodies having reactivity with the surfaces of the breast cancer cells expressing CAPRIN-1 were selected from among the above monoclonal antibodies. Specifically, 10^6 cells of human breast cancer cell line, MDA-MB-231V, were centrifuged in a 1.5-ml microcentrifuge tube, 100 μl of the hybridoma supernatants prepared above was added thereto, and the resultants were allowed to stand on ice for 1 hour. After the plate was washed with PBS, the FITC-labeled goat anti-mouse IgG antibody (Invitrogen) diluted 500-fold with PBS containing 0.1% fetal bovine serum was added, and the plate was allowed to stand on ice for 1 hour. After the plate was washed with PBS, fluorescence intensity was measured using the FACSCalibur (Becton Dickinson). Separately, as a control, the same procedure was carried out except for adding a medium instead of the antibodies. […] The sequence of the heavy-chain variable region of one of such monoclonal antibodies is shown by SEQ ID NO: 78 and that of the light-chain variable region thereof is shown by SEQ ID NO: 79.

[6] = 10 days after the administration
[7] = 30 days after the administration

**Q.** With `CSCC[C@H](NC(=O)[C@@H](NC(=O)[C@H](CCC(N)=O)NC(=O)[C@H](CS)NC(=O)[C@H](CO)NC(=O)[C@H](Cc1ccc(O)cc1)NC(=O)[C@H](CO)NC(=O)[C@@H](N)CCCNC(=N)N)C(C)C)C(=O)N[C@@H](Cc1c[nH]cn1)C(=O)N[C@@H](CCC(=O)O)C(=O)O` [SEQ ID NO: 77] (H-RSYSCQVMHE-OH) as the molecule, how does the “cytotoxic activity of peptide-stimulated CD8+ T cells against U-87MG cells” value [1] read?
**A.** did not show cytotoxic activity

**Q.** And the “cytotoxic activity of peptide-stimulated CD8+ T cells against JTK-LCL cells” value [2]?
**A.** did not exhibit cytotoxicity

B1: SEQ ID NO: 6: recombinant polypeptide having the amino acid sequence shown by SEQ ID NO: 6 (canine CAPRIN-1), expressed in E. coli (protein, listed as Canis familiaris)
chain: MALSQDIQKTIKKTARREQLMREEAEQKRLKTVLELQYVLDKLGDDEVRTDLKQGLNGVPILSEEELSLLDEFYKLADPERDMSLRLNEQYEHASIHLWDLLEGKEKSVCGTTYKALKEIVERVFQSNYFDSTHNHQNGLCEEEEAASAPTVEDQVAEAEPEPAEEYTEQSEVESTEYVNRQFMAETQFSSGEKEQVDEWTVETVEVVNSLQQQPQAASPSVPEPHSLTPVAQADPLVRRQRVQDLMAQMQGPYNFIQDSMLDFENQTLDPAIVSAQPMNPTQNMDMPQLVCPPVHSESRLAQPNQVPVQPEATQVPLVSSTSEGYTASQPLYQPSHATEQRPQKEPIDQIQATISLNTDQTTASSSLPAASQPQVFQAGTSKPLHSSGINVNAAPFQSMQTVFNMNAPVPPVNEPETLKQQNQYQASYNQSFSSQPHQVEQTEGCRK
**Q.** B1 was tested. Which “number of IFNγ spots detected in peripheral blood mononuclear cells” value (“number of IFNγ spots detected” below) [3, 6] did it give?
**A.** 13 spots

**Q.** What about the “number of IFNγ spots detected” value [3, 7] of the same molecule?
**A.** 82 spots

**Q.** What about the tumor size ([4]; 10 days after the initial administration) of the same molecule?
**A.** 55 mm^3

**Q.** What about the tumor size ([4]; 20 days after the initial administration) of the same molecule?
**A.** 30 mm^3

**Q.** What about the tumor size ([4]; 30 days after the initial administration) of the same molecule?
**A.** 20 mm^3

B2: monoclonal antibody against CAPRIN-1 having the heavy-chain variable region of SEQ ID NO: 78 and the light-chain variable region of SEQ ID NO: 79: mouse monoclonal antibody against human CAPRIN-1 … (antibody, listed as Mus musculus, V domains shown)
VH: PRASLGVSETLLCTSGFTFTDYYMSWVRQPPGKALEWLGFIRNKANGYTTEYSASVKGRFTISRDNSQSILYLQMNTLRAEDSATYYCARANWAFDYWGQGTTVTVSSK
VL: SGDRVSLSCRASQSISNYLHWYQQKSHESPRLLIKYASQSISGIPSRFSGSGSGTDFTLSINSVETEDFGMYFCQQSNSWPYTFGGGTKLEIKQ
notes: mouse monoclonal antibody against human CAPRIN-1 reacting with breast cancer cell surfaces
**Q.** B2 was tested. Which “reactivity with breast cancer cell surface (fluorescence intensity, FACS)” value [5] did it give?
**A.** reacts with the cancer cell surface

B3: SEQ ID NO: 8: recombinant polypeptide having the amino acid sequence shown by SEQ ID NO: 8 (canine CAPRIN-1), expressed in E. coli (protein, listed as Canis familiaris)
chain: MPSATSLSGSGSKSSGPPPPSGSSGSEAAAAAGAAGAAGAGAAAPASQHPATGTGAVQTEAMKQILGVIDKKLRNLEKKKGKLDDYQERMNKGERLNQDQLDAVSKYQEVTNNLEFAKELQRSFMALSQDIQKTIKKTARREQLMREEAEQKRLKTVLELQYVLDKLGDDEVRTDLKQGLNGVPILSEEELSLLDEFYKLADPERDMSLRLNEQYEHASIHLWDLLEGKEKSVCGTTYKALKEIVERVFQSNYFDSTHNHQNGLCEEEEAASAPTVEDQVAEAEPEPAEEYTEQSEVESTEYVNRQFMAETQFSSGEKEQVDEWTVETVEVVNSLQQQPQAASPSVPEPHSLTPVAQADPLVRRQRVQDLMAQMQGPYNFIQDSMLDFENQTLDPAIVSAQPMNPTQNMDMPQLVCPPVHSESRLAQPNQVPVQPEATQVPLVSSTSEGYTASQPLYQPSHATEQRPQKEPIDQIQATISLNTDQTTASSSLPAASQPQVFQAGTSKPLHSSGINVNAAPFQSMQTVFNMNAPVPPVNEPETLKQQNQYQASYNQSFSSQPHQVEQTDLQQEQLQTVVGTYHGSQDQPHQVTGNHQQPPQQNTGFPRSSQPYYNSRGVSRGGSRGARGLMNGYRGPANGFRGGYDGYRPSFSNTPNSGYTQSQFSAPRDYSGYQRDGYQQNFKRGSGQSGPRGAPRGRGGPPRPNRGMPQMNTQQVN
**Q.** With B3 as the molecule, how does the “number of IFNγ spots detected” value [3, 6] read?
**A.** 32 spots

**Q.** And the “number of IFNγ spots detected” value [3, 7]?
**A.** 117 spots

**Q.** What about the “tumor completely regressed, time after the initial administration” value ([4]; with Freund's incomplete adjuvant, 3 times, plus 100 μg canine interleukin 12 subcutaneously, tumor at administration about 123 mm^3 (SEQ ID NO: 2), about 96 mm^3 (SEQ ID NO: 8)) of the same molecule?
**A.** 27 days
